The source of these data is article PMC6563288.

For this assay, the target named is VP1(289A)-Flag (enterovirus A71 (C4)). The experiment in a line: co-IP.

The substance “Vimentin (VIM) (from UniProt P08670 1-466) (natural protein)” yielded a fold VIM pulled down, against VP1(289T)-Flag of 1.6 fold.
